The DeepSol protein solubility set

assay: soluble on expression in E. coli; label from the status in PepcDB or PDB records

Sequence | soluble on expression in E. coli
MLRNLILITLLVASGHGQTPVIGGTCKLGTADVQIGGKQTQFFLKCETTADSAEGEGVWVVKSRAAAAPSSVPSVPAENTQPQQHPKARKPASPNICEQDNGARESEVCAVSATCLQAHNDFPSSYLQCDQTTLRWVRKSCQENFLFNFEQQTCIVPKRMSSLSRQQASGLVCTFSSCSNSNPCSVGTCNNGYCCSSGSNSGSAIIVGGGSSNCVGCQNAPQIITIPQNSCPGGGYSVGGCSSGYCATGYSCIQNQCCPSYNSAPRISVYTCPSGGNAVGACMSGRCASGYTCSNNVCCPQTTTTNPFVCPDGTQAAGGCVNGQCGTGYTCSNGLCCAGTSTTVKCLDGSDAVGACIPSCTGDGCGGVQVSYYCGSGYTCTTGNICCPINSCPNGGEVLGPTINGLCPTGYTVQGNLCCSATCTDGSTGLPSVNGVCIDGYSLTNGVCCPASVTCTDEISIGPCTGTGFNGGCPAGYACDSNQVNCCPVVRYTDESCQVGPAIDGLCPPGYVVVYIPNSPLITNGVNPGTCIDLQCTTGLCLTANQIGDCDTATDAGTCPTGYTCFTNAGICCSTTTFSRLRIGNSRQMAQKPNYGRPLHSYMPPPRPIGARCQLDGECVGQAEGLSMCHAGVCQCSPIAYTQGIACVRRKSFQMNDDPVIDAANDDKSSSSVSV | not soluble
MLRSKKMVLVGRKAPDFTAAAVLGNGEIVDNFNFAEFTKGKKAVVFFYPLDFTFVCPSELIAFDNRYEDFLAKGVEVIGVSIDSQFSHNAWRNTAVENGGIGQVKYPLVADVKHEICKAYDVEHPEAGVAFRGSFLIDEEGMVRHQVVNDLPLGRNIDEMLRMVDALNFHQTHGEVCPAQWEAGKAGMEASPKGVAAFLSQYSADLK | not soluble
MLSEGTHLRPYETLGAHADTMDGVTGTRFSVWAPNARRVSVVGQFNYWDGRRHPMRLRKESGIWELFIPGAHNGQLYKYEMIDANGNLRLKSDPYAFEAQMRPETASLICGLPEKVVQTEERKKANQFDAPISIYEVHLGSWRRHTDNNFWLSYRELADQLVPYAKWMGFTHLELLPINEHPFDGSWGYQPTGLYAPTRRFGTRDDFRYFIDAAHAAGLNVILDWVPGHFPTDDFALAEFDGTNLYEHSDPREGYHQDWNTLIYNYGRREVSNFLVGNALYWIERFGIDALRVDAVASMIYRDYSRKEGEWIPNEFGGRENLEAIEFLRNTNRILGEQVSGAVTMAEESTDFPGVSRPQDMGGLGFWYKWNLGWMHDTLDYMKLDPVYRQYHHDKLTFGILYNYTENFVLPLSHDEVVHGKKSILDRMPGDAWQKFANLRAYYGWMWAFPGKKLLFMGNEFAQGREWNHDASLDWHLLEGGDNWHHGVQRLVRDLNLTYRHHKAMHELDFDPYGFEWLVVDDKERSVLIFVRRDKEGNEIIVASNFTPVPRHDYRFGINQPGKWREILNTDSMHYHGSNAGNGGTVHSDEIASHGRQHSLSLTLPPLATIWLVREAE | soluble
MLSHETIWSAIDTLAERHQLTPSALAKRAGLDPTSFNKSKRFGPDGRKRWPSTESVSKVLEATGASVDQFFGYAFGRAQTMQPSGADNAIPLLGFAQAGSGGFFDDGGFPAGQGWDVVEFPSSPERKQGVYALEVQGESMMPLYRDGDILIVEPGAPVRRGDRVVLKSRDGEVMAKVLARQSPKNIELLSLNPEHPNRSFDMADVEWIARIIWASQ | not soluble
MLSKFVVVEVSNSNNTMTLVEYLVTHGFDKFAVVTDLVDHPSFKYKDGSSSPESPSTTASTAAQHTPPRTAVSTPTSINTPVPPHQNKQRHSIDKIAANLSTKKVSPSSIEKQLQRTSHNPLHQLSTPHALSQLQKLLEEQHKINQMNIQKKEQERQQAEIQRILLQQANAAQINHSFGLERLTPEYDDNHHSETISKASSEDLKTEPDSTDFGLGTSDDQVRASMLHLLHPVFAPAFGMLDAENIFGAASKPTTPASKRRNTDSNGAPSKKHRWLPVNELEESRSSRGKNCGRVHCKATYKCALCGKPTTLNSTGSRWNLLRHVIMIHSDCKPYKCWDCDFTGIKSNVISHARQCRHNAEDAHDITTDEMRAEWNLRLHECFPDYVRAKERGWQPEEVTVKKEEVEESPTLVKQELTLVKQEPTFAEQLEPMAQPLV | soluble
MLSMPWSEIDTVLLDMDGTLLDLHYDEHFWMQHLPQRYAELHGISFAMAWLELKPLFENNAGTLNWYCLDFWSTELKLSVRDLKREIAHMIALRPDAETFLAAIKQAGKRVIMITNAHRDSLSLKMERIELAPYFERLISSHDYGFPKESQHFWDALKAETAFDPARSLFIDDTLPILRSARHFGVAHLLAVSQPNSQKGPKDTEEFAAVGDYRELIKGL | not soluble
MLSNDILRSVRYILKANNTDLARILALGNVDATPEQIAIWLRKEEEEGFQRCPDIVLSSFLNGLIYEKRGKDEAAPALTAERRINNNIVLKKLRIAFSLKTDDILAILTGQLFRVSMPEITAMMRAPDHKNFRECGDQFMRYFLRGLAAREHAAK | not soluble
MLSSINMVKIGLEVHVHLTSLKTKLFCSCPSDYTGKDPNTNVCPICLGLPGAIPVLNENAVKAAIMVALAINAEIANSLIMVRKHYFYPDMAKNYQISQYDGPGSIAISKGGYLKLREGKTVRIRRINIEEDPAKIIYPTGSMLTSKYTLLDYNRSGMGLLEIVTEPDMTEPKEAREFLEKLRSILEHLGVCNCDLEGAMRADANVSVEGGERVEIKNIGSPREVEEALKYEIARQKAAIAQGLPVKRETRHWDSERKVTVPTRTKETEEDYRYFPDPDLPPYPITQDLIEEIRKTLPELPDLRIKRLVTQYGISDYDATVLVMDKALADLFEETAKHYSNYKKLVNLLINDYLRWLNDKNLRPSQSKAGSQHLVELLKLLDDGVITIKIAKEILPEIVLEGKMPSSIIKERGLVAIKDEDYLINVIKEVINEEPDAAEKAKNDPKVINYLVGKVMKKTGKRADPQLTNELIKKILGIK | soluble
MLSSKTFLNLVRTSRCRMSSSFAPKPAERTAQHSASIWVEFTTLAAETKAVNLGQGFPDSPAPKFVTDLLENLSKHPELTAAHQYTRGYGHPMLVDILAKMYSHFYNVQVDPMNEVLVTVGAYLSLYYAFLGWVNKGDEVLIIEPAYDCYYPQVKFAGGVPVPVVMNLAEGATSASQFTIDFADMESKINEKTKMLVINNPHNPTGKLFSRHELEKLAEIAKKHNLIVIADEVYEFHVWDKNDMVRFASLPGMYERTISIGSAGKAFSVTGWKLGWAVGPKQLLEPLKAIHQNCVFTCSTPTQMAIAEAFRLDWPKFLSDPENSYLATGLSGELRAKRDKLAKMLEEGNFRPIIPDAGYFMLADYVHLKEGINLPTEEDPDDFVFSRWLCREKKLAVIPPSAFYSARDNKLKNSNMVRLCYFKKDETLDAAEEILKKLGKQ | not soluble
MLSTNNITMQFGSKPLFENISVKFGGGNRYGLIGANGCGKSTFMKILGGDLVPSGGNVFLDPNERLGKLRQDQFAFENNTVLDTVIMGHGELWEVKEERDRIYAMAEMSEEDGYKVADLEVAYGEMDGYSAEARAGELLLGVGIPVEQHYGLMSEIAPGWKLRVLLAQALFSDPEILLLDEPTNNLDIDTIRWLEQVLNERNSTMIIISHDRHFLNMVCTHMADLDYGELRVYPGNYDEYMTAATQARERLLSDNAKKKAQISELQSFVSRFSANASKSKQATSRARQIDKIQLDEVKASSRQNPFIRFDQDRKLFRNALEVEMLTKGFDNGPLFKNLTLRLEVGEKVAILGPNGIGKSTLLKTLLGEYESDAGTVKWSENSKIGYYAQDHASDFDIDLTVFDWMSQWKQEKDDEQAVRSVLGRLLFSQDDIKKKVSVLSGGEKGRMLFGKLMMQRPNILVMDEPTNHLDMESIESLNMALEMYEGTLIFVSHDREFVSSLATRVIEMTPNKLIDFTGNYEDYLSSQGIHS | not soluble
MLTEGISIQSYDGHTFGALVGSPAKAPAPVIVIAQDIFGVNAFMRETVSWLVDQGYAAVCPDLYARQAPGTALDPQDERQREQAYKLWQAFDMEAGVGDLEAAIRYARHQPYSNGKVGLVGYSLGGALAFLVASKGYVDRAVGYYGVGLEKQLNKVPEVKHPALFHMGGQDHFVPAPSRQLITEGFGANPLLQVHWYEEAGHSFARTGSSGYVASAAALANERTLDFLVPLQSRKP | soluble
MLTFLIPTAKEMTIPKESHPHLLPQDSQAILKIMAAMTTEDLAKSYRIKEESAKKEQQRWQDMASQQSLAYPAYQLFNGLMYRHIKRDKLTTQEQAYLTQQVYITSSFYGIIPANHPIAEHRHDFHTRIKIEGQSLKSYWRPCYNQFAKEHPQVISLLSSEFDDVFSKDCKQLWISPKFMAEKEGQFKTHSTISKKARGAFLTACMENNCQTVDSLKSLVFAGFYYHPDLSTDHEFVYIKKEA | not soluble
